Laboratory results published in PMC7954794, “Protein context shapes the specificity of SH3 domain-mediated interactions in vivo” (Nature Communications, 2021).

B1: Sdc25 (protein, UniProt P0CF34 1-1048, looked up)
Putative truncated guanine …: MPITSSPDLFYLNDCDVVYWYDLTRLVCHYVNLTERDLLANEREKFLTSLDLLTAQITYVYMLFRNLRLVEDSFKKTLKKLIYTLSRFSINANIWFHSTLFEEREAIASQKDPERRSPLLQSILGTFQKFHFLLRLLHFLSNPNELTILPQLTPRFFKDSFNTISWNNPFLRKRLNQHMSHDLPRQMIKAVAGASGIVAENIDEIPASKQGTSCSSETSHHSPSAPFQRRRRGTIFSNVSGSSDESDTIWSKRKKPYPLNEETLSLVRARKKQLDGKLKQMIKSANEYLSNTANFSKMLNFEMNFKTYEEVSGTIPIIDILENLDLTIFLNLRELGDENRVFDEDVAIDDEDEEFLKHSLSSLSYILSDYFNMKQYFHDVVVKFIIVAQHLTLEDPFVFSPMQNDLPTGYYEPMKPSSLNLDNAKDKKNGSQNTDIQEEEDEYEPDPDSLILFHNLINQDSDFNDLKFFNLAHVFKKSCDDYFDVLKLAIEFVNQLILERENLLNYAARMMKNNITELLLRGEEGYGSYDGGETAEKSDTNAVYADSDTKDNDEWRDSQVKLPRYLQREYDSELIWGSNNRIKGGSKHALISYLTDNEKKDLFFDITFLITFRSIFTTTEFLSYLISQYNLDPPEDLCFEEYNEWVTKKLIPVKCRVVEIMTTFFKQYWFLGYDEPDLATLNLDYFAQVAIKENITGSVELLKEVNQKFKHGNIQEATAPMKTLDQQICQDHYSGTLYSTTESILAVDPVLFATQLTILEHEIYCEITIFDCLQKIWKNKYTKSYGASPGLNEFISFANKLTNFISYSVVKEADKSKRAKLLSHFIFIAEYCRKFNNFSSMTAIISALYSSPIYRLEKTWQAVIPQTRDLLQSLNKLMDPKKNFINYRNELKSLHSAPCVPFFGVYLSDLTFTDSGNPDYLVLEHGLKGVHDEKKYINFNKRSRLVDILQEIIYFKKTHYDFTKDRTVIECISNSLENIPHIEKQYQLSLIIEPKPRKKVVPNSNSNNKSQEKSRDDQTDEGKTSTKKDRFPKFQLHKTKKKAPKVSK
B2: Ysc84 (protein, UniProt P32793 1-468, looked up)
Protein YSC84: MGINNPIPRSLKSETKKAAKVLRSFVKPNQVFGADQVIPPYVLKRAKGLAIITVLKAGFLFSGRAGSGVIVARLKDGTWSAPSAIAMAGAGAGGMVGVELTDFVFILNSEEAVRSFSEFGTITLGGNVSVSAGPLGRSAEAAASASTGGVSAVFAYSKSKGLFAGVSVEGSAILERREANRKFYGDNCTSKMILSGRVKVPPAADPLLRILESRAFNFTRHDHDDNASGDDFYDDGQYSDNTSHYYDDIPDSFDSTDESSTRPNTRSSRRRGMSLGSRSRYDDDYDDDGYGRGRGYGDFDSEDEDYDYGRSPNRNSSRNRGPQIDRGTKPRANTRWEDDLYDRDTEYSRPNHSGRDYDNTRGNRRGYGRERGYSLGHGPTHPSNMSNVDDLSHKMSKTGLGNESTATNSATPTAVALYNFAGEQPGDLAFKKGDVITILKKSDSQNDWWTGRTNGKEGIFPANYVRVS
B3: Pin3 (protein, UniProt Q06449 2-215, looked up)
[PSI+] inducibility protein 3: SASLINRSLTNIRTELDFLKGSNVISNDVYDQINKSLPAKWDPANAPRNASPASLEYVEALYQFDPQQDGDLGLKPGDKVQLLEKLSPEWYKGSCNGRTGIFPANYVKPAFSGSNGPSNLPPPPQYKAQELQQIPTQNSAASSYQQQPFPPPSTNYYQQPQQQPQQAPPPQQQQQQQQHQSSHSHLKSFGSKLGNAAIFGAGASIGSDIVNNIF
B4: Sho1 (protein, UniProt P40073 1-367, looked up)
High osmolarity signaling …: MSISSKIRPTPRKPSRMATDHSFKMKKFYADPFAISSISLAIVSWVIAIGGSISSASTNESFPRFTWWGIVYQFLIICSLMLFYCFDLVDHYRIFITTSIAVAFVYNTNSATNLVYADGPKKAAASAGVILLSIINLIWILYYGGDNASPTNRWIDSFSIKGIRPSPLENSLHRARRRGNRNTTPYQNNVYNDAIRDSGYATQFDGYPQQQPSHTNYVSSTALAGFENTQPNTSEAVNLHLNTLQQRINSASNAKETNDNSNNQTNTNIGNTFDTDFSNGNTETTMGDTLGLYSDIGDDNFIYKAKALYPYDADDDDAYEISFEQNEILQVSDIEGRWWKARRANGETGIIPSNYVQLIDGPEEMHR
B5: Pex13 (protein, UniProt P80667 1-386, looked up)
Peroxisomal membrane protein …: MSSTAVPRPKPWETSASLEEPQRNAQSLSAMMTSNQQDSRPTEESNNSNSASESAPEVLPRPAALNSSGTYGESNTIPGIYGNSNYGIPYDNNPYSMNSIYGNSIGRYGYGGSYYGNNYGSFYGGGYGAGAGYGMNNGSGLGESTKATFQLIESLIGAVTGFAQMLESTYMATHNSFFTMISVAEQFGNLKEMLGSFFGIFAIMKFLKKILYRATKGRLGIPPKNFAESEGSKNKLIEDFQKFNDSGTINSNEKATRRKISWKPLLFFLMAVFGFPYLLNKFITKLQTSGTIRASQGNGSEPIDPSKLEFARALYDFVPENPEMEVALKKGDLMAILSKKDPLGRDSDWWKVRTKNGNIGYIPYNYIEIIKRRKKIEHVDDETRTH
B6: Boi1 (protein, UniProt P38041 1-980, looked up)
BEM1-interacting protein 1: MSLEGNTLGKGAKSFPLYIAVNQYSKRMEDELNMKPGDKIKVITDDGEYNDGWYYGRNLRTKEEGLYPAVFTKRIAIEKPENLHKSPTQESGNSGVKYGNLNDSASNIGKVSSHQQENRYTSLKSTMSDIDKALEELRSGSVEQEVSKSPTRVPEVSTPQLQDEQTLIQEKTRNEENTTHDSLFSSTADLNLSSESLKNISKSNISTKSLEPSSESVRQLDLKMAKSWSPEEVTDYFSLVGFDQSTCNKFKEHQVSGKILLELELEHLKELEINSFGIRFQIFKEIRNIKSAIDSSSNKLDADYSTFAFENQAAQLMPAATVNRDEIQQQISSKCNKLSSESSDRKSSSVTTELQRPSSVVVNPNFKLHDPAEQILDMTEVPNLFADKDIFESPGRAPKPPSYPSPVQPPQSPSFNNRYTNNNARFPPQTTYPPKNKNPTVYSNGLIPNSSTSSDNSTGKFKFPAMNGHDSNSRKTTLTSATIPSINTVNTDESLPAISNISSNATSHHPNRNSVVYNNHKRTESGSSFVDLFNRISMLSPVKSSFDEEETKQPSKASRAVFDSARRKSSYGHSRDASLSEMKKHRRNSSILSFFSSKSQSNPTSPTKQTFTIDPAKMTSHSRSQSNSYSHARSQSYSHSRKHSLVTSPLKTSLSPINSKSNIALAHSETPTSSNNKEAVSQPSEGKHKHKHKHKSKHKHKNSSSKDGSSEEKSKKKLFSSTKESFVGSKEFKRSPSELTQKSTKSILPRSNAKKQQTSAFTEGIRSITAKESMQTADCSGWMSKKGTGAMGTWKQRFFTLHGTRLSYFTNTNDEKERGLIDITAHRVLPASDDDRLISLYAASLGKGKYCFKLVPPQPGSKKGLTFTEPRVHYFAVENKSEMKAWLSAIIKATIDIDTSVPVISSYATPTIPLSKAQTLLEEARLQTQLRDAEEEEGRDQFGWDDTQNKRNSNYPIEQDQFETSDYLESSAFEYPGGRL
B7: Abp1-1 (protein, UniProt P15891 2-592, looked up)
Actin-binding protein: ALEPIDYTTHSREIDAEYLKIVRGSDPDTTWLIISPNAKKEYEPESTGSSFHDFLQLFDETKVQYGLARVSPPGSDVEKIIIIGWCPDSAPLKTRASFAANFAAVANNLFKGYHVQVTARDEDDLDENELLMKISNAAGARYSIQTSSKQQGKASTPPVKKSFTPSKSPAPVSKKEPVKTPSPAPAAKISSRVNDNNDDDDWNEPELKERDFDQAPLKPNQSSYKPIGKIDLQKVIAEEKAKEDPRLVQKPTAAGSKIDPSSDIANLKNESKLKRDSEFNSFLGTTKPPSMTESSLKNDDDKVIKGFRNEKSPAQLWAERKAKQNSGNAETKAEAPKPEVPEDEPEGEPDVKDLKSKFEGLAASEKEEEEMENKFAPPPKKSEPTIISPKPFSKPQEPVKAEEAEQPKTDYKKIGNPLPGMHIEADNEEEPEENDDDWDDDEDEAAQPPLPSRNVASGAPVQKEEPEQEEIAPSLPSRNSIPAPKQEEAPEQAPEEEIEEEAEEAAPQLPSRSSAAPPPPPRRATPEKKPKENPWATAEYDYDAAEDNELTFVENDKIINIEFVDDDWWLGELEKDGSKGLFPSNYVSLGN

Tested on: Abp1 (1xFLAG)
Experiment: Western blot expression level of Abp1 SH3-swapped baits (Fig. S2A-B)
Type: cell-based, Saccharomyces cerevisiae
Set-up: Flag (2 bands): unit not given here
Conditions: Flag signal relative to Abp1 WT (Abp1-1 to Abp1-4 = 1); sheet FigS2A-B
Experimental: Precultures of yeast cells expressing baits fused with the DHFR F[1,2]-FLAG were grown overnight at 30 °C with agitation in synthetic complete medium. The next day, cells were expanded in synthetic complete medium to reach their exponential phase (OD600 of around 1.0), pelleted, and frozen at −80 °C. The equivalent of fifty OD600 of cells was resuspended in ice-cold yeast lysis buffer (10 mM Tris-HCl pH 7.4, 150 mM NaCl, 0.5 mM EDTA (Millipore Sigma), 1% Triton X-100 (Millipore Sigma), and one cOmplete Mini Protease Inhibitor Cocktail (Millipore Sigma) per 10 mL) with […] glass beads (Millipore Sigma) and disrupted at 4 °C by 10 cycles of 2 min vortexing and 2 min cooldown. The equivalent of […] of lysed cells was used for the immunoprecipitation of the bait proteins using FLAG-M2 agarose beads (Millipore Sigma). The beads were incubated with the cell lysates for 120 min at 4 °C with a slow rotation, followed by three washes with the yeast lysis buffer.
Protein extracts and affinity-purified baits from yeast and human lysed cells were migrated on 10% polyacrylamide gels. The separated proteins were then transferred to nitrocellulose membranes. Validation of correct protein loading was done with ponceau staining of the membranes. Before the primary antibody incubations, membranes were blocked in 5% milk. Protein signals were detected on an Amersham Imager 600RGB (GE Healthcare) following the incubation of the membranes with the appropriate HRP-conjugated secondary antibodies and the Clarity Western ECL Substrate (Bio-Rad). The antibodies used in this study are M2-HRP (A8592, Sigma, 1/50,000), rabbit anti-FLAG (F7425, Sigma, 1/1000), PAK (SC-881, Santa Cruz, 1/200), p130cas/BCAR1 (SC-860, Santa Cruz, 1/200), actin (Cell Signaling Technology, 1/2000), anti-mouse HRP (Cell Signaling Technology, 1/10,000) and anti-rabbit HRP (Cell Signaling Technology, 1/10,000). The quantification of the WB signals was performed with the Amersham Imager 600 analysis software (GE Healthcare).

Molecule	Ratio Swap/WT Flag
B1	0.3589
B2	0.8764
B3	0.2499
B4	0.6541
B5	0.9802
B6	0.615
B7	1

Same assay, conditions: Western blot Flag signal (2 bands), Abp1 WT, SH3-deleted or SH3-swapped; sheet FigS2A-B

Molecule	Flag (2 bands)
B1	83248
B2	203262
B3	57952
B4	151709
B5	104696
B6	59532
B7	96800

Tested on: Abp1 PPIs
Experiment: DHFR-PCA of Abp1 SH3-swapped baits (Fig. 2B-D, S2C, S2F)
Type: cell-based, Saccharomyces cerevisiae
Conditions: number of interactions of Abp1 carrying the named SH3; sheet FigS2A-B
How it was run: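 Interactions were scored by DHFR protein-fragment complementation. DHFR F[1,2]-tagged Abp1 strains, whose SH3 was swapped for yeast or human ortholog domains, were crossed on YPD at 30 °C for 48 h with a 1536-format array of 575 prey-DHFR F[3] strains and 40 negatives, giving four replicates per pair. PCA selection lasted 4 days after double diploid selection.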

Molecule	Interactions in Abp1
B1	10
B2	108
B3	99
B4	81
B5	91
B6	70
B7	86
